Article PMC8904598, “Structural snapshots of V/A-ATPase reveal the rotary catalytic mechanism of rotary ATPases” (Nature Communications, 2022)

Test system: T1, Nc1ncnc2c1ncn2[C@@H]1O[C@H](COP(=O)(O)OP(=O)(O)OP(=O)(O)O)[C@@H](O)[C@H]1O
T1 construct: holo V/A-ATPase (A3B3D1F1 + E2G2d1a1c12), C-terminal His3 tag on each c subunit, purified from T. thermophilus membranes, nucleotide removed by EDTA/phosphate dialysis, MSP1E3D1/DMPC nanodiscs; models cover V1EG; with V-type ATP synthase subunit D; V-type ATP synthase subunit F; V-type ATP synthase subunit E; V-type ATP synthase subunit G; V-type ATP synthase subunit C; V-type ATP synthase subunit I; V-type ATP synthase subunit K
Assay: purified protein
Assay type: biochemical, Thermus thermophilus
Details: nanodisc enzyme, ATP-Mg, 50 mM Tris-HCl pH 8.0, 100 mM KCl, 25 °C, ATP-regenerating system, all rows carry A/S232A, A/T235S

Q: For “Tth V/A-ATPase (A/S232A, T235S; TSSA mutant), nanodisc-incorporated, nucleotide-free (Thermus thermophilus HB8; Q56403:S232A/Q56403:T235S)”, which Km is on record?
A: 394 µM

Q: And the kcat?
A: 22 s⁻¹
